According to US20060134087A1, “ITI-D1 Kunitz domain mutants as hNE inhibitors” (Dyax Corp., priority 1988, published 2006):
Values belong to the substance of their own block, whether it stands above or below them.

Columns and labels:
hNE [1] = target: T1, hNE (Homo sapiens, UniProt P08246); assay: Temperature stability, residual inhibitory activity for hNE; format: physicochemical; design: Residual hNE Inhibitory Activity: unit not given here; details: for Residual hNE Inhibitory Activity: 18 hours, pH 7.0, 1 μM protein; for temperature below which full inhibitory activity is maintained: thirty minutes, 1 μM, phosphate buffer pH=7
T1 sequence (P08246 30-267): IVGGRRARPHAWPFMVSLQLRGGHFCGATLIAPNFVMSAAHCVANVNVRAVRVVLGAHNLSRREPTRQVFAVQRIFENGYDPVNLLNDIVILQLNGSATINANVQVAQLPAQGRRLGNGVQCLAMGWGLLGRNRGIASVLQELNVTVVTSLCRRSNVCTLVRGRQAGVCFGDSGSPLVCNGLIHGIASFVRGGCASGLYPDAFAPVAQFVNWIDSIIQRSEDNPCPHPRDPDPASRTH
Protocol: The stability of EPI-HNE proteins to temperatures in the range 0° C. to 95° C. was assessed by incubating the inhibitors for thirty minutes at various temperatures and determining residual inhibitory activity for hNE. In these experiments, protein concentrations were 1 μM in phosphate buffer at pH=7. As is shown in Table 40, the four inhibitors are quite temperature stable.
Proteins were incubated at the stated temperature for 18 hours in buffer at pH 7.0. In all cases protein concentrations were 1 μM. At the end of the incubation period, aliquots of the reactions were diluted and residual hNE-inhibition activity determined.

hNE [2] = target: T1, hNE; assay: hNE inhibition, hydrolysis of fluorogenic substrate (Ki; standard hNE-inhibition assay); format: biochemical; design: concentration or dose not given beside the values
Protocol: Inhibition constants for the proteins reacting with hNE (Ki) were determined using RT measurements of hydrolysis of a fluorogenic substrate (N-methoxysuccinyl-Ala-Ala-Pro-Val-7-amino-4-methylcoumarin, Sigma M-9771) by hNE. For these measurements, aliquots of the appropriately diluted inhibitor stocks were added to 2 ml solutions of 0.847 nM hNE in reaction buffer (50 mM Tris-Cl, pH=8.0, 150 mM NaCl, 1 mM CaCl2, 0.25% Triton-X-100) in plastic fluorescence cuvettes. The reactions were incubated at RT for 30 minutes. At the end of the incubation period, the fluorogenic substrate was added at a concentration of 25 μM and the time course for increase in fluorescence at 470 nm (excitation at 380 nm) due to enzymatic substrate cleavage was recorded using a spectrofluorimeter (Perkin-Elmer 650-15) and strip chart recorder. […] Ki is related to Kapparent by Ki=Kapparent×(1/(1+(S0/Km))). The correction is small compared to the possible errors in Kapparent. Rates of enzymatic substrate cleavage were determined from the linear slopes of the recorded increases in fluorescence. The percent residual activity of hNE in the presence of the inhibitor was calculated as the percentage of the rate of fluorescence increase observed in the presence of the inhibitor to that observed when no added inhibitor was present.
We recorded data used to determine Ki for EPI-HNE-2 and EPI-HNE-3 reacting with hNE. Data obtained as described above are recorded as percent residual activity plotted as a function of added inhibitor. Values for Ki and for active inhibitor concentration in the stock are obtained from a least-squares fit program.

hNE [3] = target: T1, hNE; assay: Resistance to oxidative inactivation by Chloramine-T, residual hNE-inhibition activity; format: physicochemical; details: for Percent Residual hNE-Inhibitory Activity: 20 minutes at RT
Protocol: At the end of the incubation period, the oxidation reactions were quenched by adding methionine to a final concentration of 4 mM. After a further 10 minute incubation, the quenched reactions were diluted and assayed for residual inhibitor activity in our standard hNE-inhibition assay.
Inhibitors were incubated in the presence of Chloramine-T at the molar ratios indicated for 20 minutes at RT. Oxidation reactions were quenched by adding methionine to a final concentration of 4 mM. Residual hNE-inhibition activity remaining in the quenched reactions is shown as a percentage of the activity observed with no added oxidant.

hNE [4] = target: T1, hNE; assay: pH stability, residual hNE inhibitory activity; format: physicochemical; details: 37° C., 18 hours; for pH stability: pH 1 to pH 10, 1 μM; for Percent Residual hNE Inhibitory Activity: 1 μM protein
Protocol: The stability of the proteins to exposure to pH conditions in the range of pH 1 to pH 10 was assessed by maintaining the inhibitors in buffers of defined pH at 37° C. for 18 hours and determining the residual hNE inhibitory activity in the standard hNE-inhibition assay. Proteins were incubated at a concentration of 1 μM. The buffers shown in Table 4 were formulated as described (STOL90) and used in the pH ranges indicated: […]
Proteins were incubated at 37° C. for 18 hours in buffers of defined pH (see text). In all cases protein concentrations were 1 μM. At the end of the incubation period, aliquots of the reactions were diluted and residual hNE-inhibition activity determined.

[5] = Molar Ratio CHL-T:Inhibitor 1.0
[6] = Molar Ratio CHL-T:Inhibitor 10.
[7] = Molar Ratio CHL-T:Inhibitor .50

- Percent residual hNE activity (hNE [2]; 10. μl of EPI-HNE-2 solution added): 82.9%
- Percent residual hNE activity (hNE [2]; 20. μl of EPI-HNE-2 solution added): 71.8%
- Percent residual hNE activity (hNE [2]; 30. μl of EPI-HNE-2 solution added): 59.5%
- Percent residual hNE activity (hNE [2]; 40. μl of EPI-HNE-2 solution added): 46.2%
- Percent residual hNE activity (hNE [2]; 50. μl of EPI-HNE-2 solution added): 39.2%
- Percent residual hNE activity (hNE [2]; 55. μl of EPI-HNE-2 solution added): 32.2%
- Percent residual hNE activity (hNE [2]; 60. μl of EPI-HNE-2 solution added): 22.5%
- Percent residual hNE activity (hNE [2]; 65. μl of EPI-HNE-2 solution added): 23.5%
- Percent residual hNE activity (hNE [2]; 70. μl of EPI-HNE-2 solution added): 15.0%
- Percent residual hNE activity (hNE [2]; 75. μl of EPI-HNE-2 solution added): 10.4%
- Percent residual hNE activity (hNE [2]; 80. μl of EPI-HNE-2 solution added): 8.6%
- Percent residual hNE activity (hNE [2]; 85. μl of EPI-HNE-2 solution added): 4.8%
- Percent residual hNE activity (hNE [2]; 90. μl of EPI-HNE-2 solution added): 1.4%
- Percent residual hNE activity (hNE [2]; 95. μl of EPI-HNE-2 solution added): 2.0%
- Percent residual hNE activity (hNE [2]; 100. μl of EPI-HNE-2 solution added): 2.5%
- Percent residual hNE activity (hNE [2]; 120. μl of EPI-HNE-2 solution added): 0.2%
- Percent residual hNE activity (hNE [2]; 150. μl of EPI-HNE-2 solution added): 0.2%
- Percent residual hNE activity (hNE [2]; 200. μl of EPI-HNE-2 solution added): 0.04%
Substance: EPI-HNE-2: EPI-HNE-1 with four additional residues EAEA at the amino terminus, SEQ ID NO 008
- Residual hNE Inhibitory Activity (hNE [1]; Temperature 0 ° C.): 101
- Residual hNE Inhibitory Activity (hNE [1]; Temperature 23 ° C.): 103
- Residual hNE Inhibitory Activity (hNE [1]; Temperature 37 ° C.): 97
- Residual hNE Inhibitory Activity (hNE [1]; Temperature 52 ° C.): 101
- Residual hNE Inhibitory Activity (hNE [1]; Temperature 65 ° C.): 95
- Residual hNE Inhibitory Activity (hNE [1]; Temperature 80 ° C.): 101
- Residual hNE Inhibitory Activity (hNE [1]; Temperature 93 ° C.): 88
- temperature below which full inhibitory activity is maintained (hNE [1]): below 90 °C
- Percent Residual hNE-Inhibitory Activity (hNE [3]; Molar Ratio CHL-T:Inhibitor 0): 100%
- Percent Residual hNE-Inhibitory Activity (hNE [3]; Molar Ratio CHL-T:Inhibitor 0.25): 94%
- Percent Residual hNE-Inhibitory Activity (hNE [3]; [5]): 102%
- Percent Residual hNE-Inhibitory Activity (hNE [3]; Molar Ratio CHL-T:Inhibitor 1.5): 95%
- Percent Residual hNE-Inhibitory Activity (hNE [3]; Molar Ratio CHL-T:Inhibitor 2.0): 102%
- Percent Residual hNE-Inhibitory Activity (hNE [3]; Molar Ratio CHL-T:Inhibitor 4.0): 95%
- Percent Residual hNE-Inhibitory Activity (hNE [3]; [6]): 98%
- Percent Residual hNE-Inhibitory Activity (hNE [3]; [7]): 102%
- pH stability (hNE [4]): stable at all pH values tested
- Percent Residual hNE Inhibitory Activity (hNE [4]; Incubation pH 1.0): 98%
- Percent Residual hNE Inhibitory Activity (hNE [4]; Incubation pH 2.0): 97%
- Percent Residual hNE Inhibitory Activity (hNE [4]; Incubation pH 3.0): 101%
- Percent Residual hNE Inhibitory Activity (hNE [4]; Incubation pH 4.0): 101%
- Percent Residual hNE Inhibitory Activity (hNE [4]; Incubation pH 5.5): 99%
- Percent Residual hNE Inhibitory Activity (hNE [4]; Incubation pH 7.0): 103%
- Percent Residual hNE Inhibitory Activity (hNE [4]; Incubation pH 8.5): 104%
- Percent Residual hNE Inhibitory Activity (hNE [4]; Incubation pH 10.0): 102%

- Percent residual hNE activity (hNE [2]; 10. μl of EPI-HNE-3 solution added): 81.6%
- Percent residual hNE activity (hNE [2]; 20. μl of EPI-HNE-3 solution added): 66.9%
- Percent residual hNE activity (hNE [2]; 30. μl of EPI-HNE-3 solution added): 53.4%
- Percent residual hNE activity (hNE [2]; 40. μl of EPI-HNE-3 solution added): 38.0%
- Percent residual hNE activity (hNE [2]; 50. μl of EPI-HNE-3 solution added): 27.6%
- Percent residual hNE activity (hNE [2]; 55. μl of EPI-HNE-3 solution added): 21.5%
- Percent residual hNE activity (hNE [2]; 60. μl of EPI-HNE-3 solution added): 13.0%
- Percent residual hNE activity (hNE [2]; 65. μl of EPI-HNE-3 solution added): 11.0%
- Percent residual hNE activity (hNE [2]; 70. μl of EPI-HNE-3 solution added): 7.9%
- Percent residual hNE activity (hNE [2]; 75. μl of EPI-HNE-3 solution added): 3.8%
- Percent residual hNE activity (hNE [2]; 80. μl of EPI-HNE-3 solution added): 3.3%
- Percent residual hNE activity (hNE [2]; 85. μl of EPI-HNE-3 solution added): 2.1%
- Percent residual hNE activity (hNE [2]; 90. μl of EPI-HNE-3 solution added): 1.8%
- Percent residual hNE activity (hNE [2]; 100. μl of EPI-HNE-3 solution added): 1.6%
- Percent residual hNE activity (hNE [2]; 110. μl of EPI-HNE-3 solution added): 0.8%
- Percent residual hNE activity (hNE [2]; 120. μl of EPI-HNE-3 solution added): 0.7%
- Percent residual hNE activity (hNE [2]; 160. μl of EPI-HNE-3 solution added): 0.6%
- Percent residual hNE activity (hNE [2]; 200. μl of EPI-HNE-3 solution added): 0.2%
Substance: EPI-HNE-3: ITI-D2(3-58) with R15I, I18F, Q19P, L20R; SEQ ID NO 026 (AACNLPIVRGPCIAFFPRWAFDAVKGKCVLFPYGGCQGNGNKFYSEKECREYCGVP; Epi-HNE-3)
- Residual hNE Inhibitory Activity (hNE [1]; Temperature 0 ° C.): 96
- Residual hNE Inhibitory Activity (hNE [1]; Temperature 23 ° C.): 105
- Residual hNE Inhibitory Activity (hNE [1]; Temperature 37 ° C.): 99
- Residual hNE Inhibitory Activity (hNE [1]; Temperature 52 ° C.): 100
- Residual hNE Inhibitory Activity (hNE [1]; Temperature 65 ° C.): 87
- Residual hNE Inhibitory Activity (hNE [1]; Temperature 80 ° C.): 79
- Residual hNE Inhibitory Activity (hNE [1]; Temperature 93 ° C.): 57
- temperature below which full inhibitory activity is maintained (hNE [1]): below 65 °C
- Percent Residual hNE-Inhibitory Activity (hNE [3]; Molar Ratio CHL-T:Inhibitor 0): 100%
- Percent Residual hNE-Inhibitory Activity (hNE [3]; [5]): 97%
- Percent Residual hNE-Inhibitory Activity (hNE [3]; Molar Ratio CHL-T:Inhibitor 3.0): 97%
- Percent Residual hNE-Inhibitory Activity (hNE [3]; Molar Ratio CHL-T:Inhibitor 5.0): 94%
- Percent Residual hNE-Inhibitory Activity (hNE [3]; [6]): 97%
- Percent Residual hNE-Inhibitory Activity (hNE [3]; Molar Ratio CHL-T:Inhibitor 30.): 100%
- Percent Residual hNE-Inhibitory Activity (hNE [3]; Molar Ratio CHL-T:Inhibitor 50.): 94%
- Percent Residual hNE-Inhibitory Activity (hNE [3]; [7]): 97%
- hNE-inhibition activity after exposure to Chloramine-T (hNE [3]; all molar ratios tested (up to 50:1 for EPI-HNE-3 and EPI-HNE-4)): retain essentially complete hNE-inhibition activity
- pH stability (hNE [4]): stable when incubated at low pH, but showed some loss of activity at high pH
- Percent Residual hNE Inhibitory Activity (hNE [4]; Incubation pH 1.0): 97%
- Percent Residual hNE Inhibitory Activity (hNE [4]; Incubation pH 2.0): 97%
- Percent Residual hNE Inhibitory Activity (hNE [4]; Incubation pH 3.0): 100%
- Percent Residual hNE Inhibitory Activity (hNE [4]; Incubation pH 4.0): 102%
- Percent Residual hNE Inhibitory Activity (hNE [4]; Incubation pH 5.5): 99%
- Percent Residual hNE Inhibitory Activity (hNE [4]; Incubation pH 6.0): 103%
- Percent Residual hNE Inhibitory Activity (hNE [4]; Incubation pH 6.5): 99%
- Percent Residual hNE Inhibitory Activity (hNE [4]; Incubation pH 7.0): 103%
- Percent Residual hNE Inhibitory Activity (hNE [4]; Incubation pH 7.5): 87%
- Percent Residual hNE Inhibitory Activity (hNE [4]; Incubation pH 8.0): 84%
- Percent Residual hNE Inhibitory Activity (hNE [4]; Incubation pH 8.5): 68%
- Percent Residual hNE Inhibitory Activity (hNE [4]; Incubation pH 9.4): 44%
- Percent Residual hNE Inhibitory Activity (hNE [4]; Incubation pH 10.0): 27%
